In patent US20250352659A1, “SELF-STABILIZING LINKER CONJUGATES” (priority 2023, published 2025):
Where two headings read alike, the source gives them in different places.

Experiments:
[1] = Conjugator-antibody conjugate maleimide hydrolysis (ring opening) kinetics by reduced LCMS; type: physicochemical; conditions: for half-life: buffer; for half-life / RO Completed Time (>95%): pH 7; for RO Completed Time (>95%): time for the maleimide ring to open in more than 95% of the conjugators
Procedure: After the conjugation step, the ADC (or conjugator-antibody conjugate) was subjected to buffer exchange into ring opening buffer (pH 6.5˜9.0, PBS, borate or tris buffer) and the solution was left at 22 or 37° C. for 1˜48 h. The maleimide ring opening process was monitored via reduced LCMS. Once the conjugated maleimide hydrolysis was completed, the resulting ADCs were buffer exchanged into basic tris pH 8.0-8.5 buffer or acidic histidine-acetate pH 5.0-6.5 buffer via dialysis.
LCMS method to monitor and determine maleimide hydrolysis. LC-MS analysis was carried out under the following measurement conditions: • LC-MS system: Vanquish Flex UHPLC and Orbitrap Exploris 240 Mass Spectrometer • Column: MAbPac™ RP, 2.1*50 mm, 4 μm, 1,500 Å, Thermo Scientific™ • Column temperature: 80° C. • Mobile phase A: 0.1% formic acid (FA) aqueous solution • Mobile phase B: Acetonitrile solution containing 0.1% formic acid (FA) • Gradient program 1: 25% B-25% B (0 min-2 min), 25% B-50% B (2 min-18 min), 50% B-90% B (18 min-18.1 min), 90% B-90% B (18.1 min-20 min), 90% B-25% B (20 min-20.1 min), 25% B-25% B (20.1 min-25 min) • Gradient program 2 • Injected sample amount: 2 μg • MS parameters: Intact and denaturing MS data were acquired in HMR mode at setting of R=15k and deconvolved using the ReSpect™ algorithm and Sliding Window integration in Thermo Scientific™ BioPharma Finder™ 4.0 software.
Results for ring opening times measured by the LCMS method described above for monitoring ring hydrolysis are presented in Table 3 as RO T1/2 (h) (i.e., the time, in hours, for 50% of the maleimide rings to open).
Conjugator-antibody conjugate maleimide hydrolysis (ring opening) kinetics are presented in FIGS. 1A-1L, Table 3 (for pH 7.0 reaction conditions, hydrolysis T1/2), and Table 5. The data in Table 5 was generated by the LCMS method described above and includes the time, in hours, for the maleimide ring to open in more than 95% of the conjugators, after antibody conjugation (“RO Completed Time (>95%) (h)”). The results for conjugator-antibody conjugate 3-1 indicate that after 24 hours, about 0% of maleimide rings were open; the results for conjugator-antibody conjugate 3-3 indicate that after 24 hours, about 28% of maleimide rings were open.

[2] = Conjugator-antibody conjugate stability in pH 7.4 and 8.0 buffer with and without GSH; type: physicochemical;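 further: conjugate hydrolysis tracked by LC-MS analysis of reduced samples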
[3] = Conjugator-antibody conjugate stability in formulation buffer (pH 5.5 20 mM histidine buffer); type: physicochemical; conditions: pH 5.5, 22 °C; for MS DAR-T = 168 h / Maleimide ring opening ratio (%) at T = 168 h: incubation 168 h
Procedure: After the conjugation and hydrolysis steps described above (see “DAR8 antibody drug conjugate/conjugator-antibody conjugate preparation”), conjugator-antibody conjugates were incubated in formulation buffer (pH 5.5 20 mM histidine buffer) or glutathione (GSH) buffer (pH 7.4 or 8.0), […] Hydrolysis status was monitored via reduced LCMS. Results are presented in Table 6, Table 7, and FIGS. 2A-23B.

B7H3 [4] = target: T1, B7H3 (human, UniProt Q5ZPR3 29-534); experiment: cell-based or functional assay
T1 sequence (looked up): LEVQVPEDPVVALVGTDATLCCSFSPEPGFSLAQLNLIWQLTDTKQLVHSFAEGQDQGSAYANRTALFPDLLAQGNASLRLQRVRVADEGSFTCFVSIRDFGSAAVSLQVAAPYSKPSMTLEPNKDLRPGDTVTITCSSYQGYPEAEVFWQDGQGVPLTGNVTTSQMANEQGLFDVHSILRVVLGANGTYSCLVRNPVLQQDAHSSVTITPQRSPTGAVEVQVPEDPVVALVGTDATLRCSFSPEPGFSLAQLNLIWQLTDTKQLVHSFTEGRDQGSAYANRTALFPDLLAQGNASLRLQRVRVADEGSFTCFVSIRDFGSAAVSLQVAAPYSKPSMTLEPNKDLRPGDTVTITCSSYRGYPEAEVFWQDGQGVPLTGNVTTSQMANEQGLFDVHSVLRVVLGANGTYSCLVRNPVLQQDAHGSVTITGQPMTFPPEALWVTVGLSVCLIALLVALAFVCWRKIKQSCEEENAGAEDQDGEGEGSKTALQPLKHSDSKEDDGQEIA

B7H3 [5] = target: T1, B7H3; experiment: cell-based or functional assay; remark: listed apart in the source

## CN(C)C(=O)CCOCC(N)CN1C(=O)C=CC1=O (centres unmarked) [3-7]
[1]
  half-life: 1.7 h
  RO Completed Time (>95%): >24 h
[1]; pH 7, time point 1 h
  MS DAR: 8.52
  RO (%) HC: 40.83%
  RO (%) LC: 28.33%
  RO (%) Total: 37.71%
[1]; pH 7, time point 3 h
  MS DAR: 8
  RO (%) HC: 79.61%
  RO (%) LC: 60.08%
  RO (%) Total: 74.73%
[1]; pH 7, time point 5 h
  MS DAR: 8
  RO (%) HC: 88.54%
  RO (%) LC: 77.85%
  RO (%) Total: 85.87%
[1]; pH 7, time point 7 h
  MS DAR: 8
  RO (%) HC: 87.98%
  RO (%) LC: 86.34%
  RO (%) Total: 87.57%
[1]; pH 7, time point 24 h
  MS DAR: 8
  RO (%) HC: 90.8%
  RO (%) LC: 92.99%
  RO (%) Total: 91.35%
[2]; incubation 20 h, pH 7.4, 22 °C
  MS DAR: 8.00
[2]; incubation 20 h, pH 7.4, 37 °C
  MS DAR: 8.00
[2]; incubation 20 h, pH 8.0, 22 °C
  MS DAR: 8.00
[3]
  MS DAR-T = 168 h: 8.00
  Maleimide ring opening ratio (%) at T = 168 h: 97.99%
  MS DAR-T = 0 h: 8.00

## CN(C)C(=O)CCNC(=O)OCCC(CN)N1C(=O)C=CC1=O (centres unmarked) [3-13]
[1]
  half-life: 1.7 h
  RO Completed Time (>95%): 7 h
[1]; pH 7, time point 1 h
  MS DAR: 8
  RO (%) HC: 43.63%
  RO (%) LC: 21.50%
  RO (%) Total: 38.10%
[1]; pH 7, time point 3 h
  MS DAR: 8
  RO (%) HC: 92.96%
  RO (%) LC: 64.20%
  RO (%) Total: 85.77%
[1]; pH 7, time point 5 h
  MS DAR: 8
  RO (%) HC: 100.00%
  RO (%) LC: 74.30%
  RO (%) Total: 93.58%
[1]; pH 7, time point 7 h
  MS DAR: 8
  RO (%) HC: 99.68%
  RO (%) LC: 93.68%
  RO (%) Total: 98.18%
[1]; pH 7, time point 24 h
  MS DAR: 8
  RO (%) HC: 100.00%
  RO (%) LC: 94.99%
  RO (%) Total: 98.75%
[2]; incubation 24 h, pH 7.4, 22 °C
  MS DAR: 7.90
[2]; incubation 24 h, pH 7.4, 37 °C
  MS DAR: 7.90
[2]; incubation 24 h, pH 8.0, 22 °C
  MS DAR: 7.90
[3]
  MS DAR-T = 168 h: 7.88
  Maleimide ring opening ratio (%) at T = 168 h: 98.33%
  MS DAR-T = 0 h: 7.84

B1: ADC4-B (antibody, human IgG1, kappa, V domains shown)
VH: QVQLVQSGAEVKKPGSSVKVSCKASGYTFTNYVMHWVRQAPGQGLEWMGYINPYNDDVKYNEKFKGRVTITADESTSTAYMELSSLRSEDTAVYYCARWGYYGSPLYYFDYWGQGTLVTVSS
VL: EIVLTQSPATLSLSPGERATLSCRASSRLIYMHWYQQKPGQAPRPLIYATSNLASGIPARFSGSGSGTDFTLTISSLEPEDFAVYYCQQWNSNPPTFGQGTKVEIKR
modifications: conjugator-linker-payload on cysteine thiols after TCEP reduction (DAR8); residues not numbered; structure given only as a drawing
B7H3 [4]
  EC50 (nM), ADC direct killing, Capan-1 (Low), 3D: 0.5 nM
  EC50 (nM), ADC direct killing, NCI-H1650 (High), 3D: 3.9 nM
  Emax (%), ADC direct killing, Capan-1 (Low), 3D: 84.9%
  Emax (%), ADC direct killing, NCI-H1650 (High), 3D: 75.3%
B7H3 [5]
  EC50 (nM), ADC direct killing, Capan-1 (Low), 3D: 1.1 nM
  EC50 (nM), ADC direct killing, NCI-H1650 (High), 3D: 4.5 nM
  Emax (%), ADC direct killing, Capan-1 (Low), 3D: 74.3%
  Emax (%), ADC direct killing, NCI-H1650 (High), 3D: 66.5%

B2: ADC4-10 (antibody, human IgG1, kappa, V domains shown)
VH: B1 VH
VL: B1 VL
modifications: conjugator-linker-payload on cysteine thiols after TCEP reduction (DAR8), maleimide hydrolysed; residues not numbered; structure given only as a drawing
B7H3 [4]
  EC50 (nM), ADC direct killing, Capan-1 (Low), 3D: 0.6 nM
  EC50 (nM), ADC direct killing, NCI-H1650 (High), 3D: 1.7 nM
  Emax (%), ADC direct killing, Capan-1 (Low), 3D: 68.4%
  Emax (%), ADC direct killing, NCI-H1650 (High), 3D: 80%

B3: ADC4-13 (antibody, human IgG1, kappa, V domains shown)
VH: B1 VH
VL: B1 VL
modifications: conjugator-linker-payload on cysteine thiols after TCEP reduction (DAR8), maleimide hydrolysed; residues not numbered; structure given only as a drawing
B7H3 [5]
  EC50 (nM), ADC direct killing, Capan-1 (Low), 3D: 0.5 nM
  EC50 (nM), ADC direct killing, NCI-H1650 (High), 3D: 1.6 nM
  Emax (%), ADC direct killing, Capan-1 (Low), 3D: 58.5%
  Emax (%), ADC direct killing, NCI-H1650 (High), 3D: 79.3%

B4: ADC4-8 (antibody, human IgG1, kappa, V domains shown)
VH: B1 VH
VL: B1 VL
modifications: conjugator-linker-payload on cysteine thiols after TCEP reduction (DAR8), maleimide hydrolysed; residues not numbered; structure given only as a drawing
B7H3 [4]
  EC50 (nM), ADC direct killing, Capan-1 (Low), 3D: 1 nM
  EC50 (nM), ADC direct killing, NCI-H1650 (High), 3D: 2.9 nM
  Emax (%), ADC direct killing, Capan-1 (Low), 3D: 66.6%
  Emax (%), ADC direct killing, NCI-H1650 (High), 3D: 79.5%

B5: ADC4-16 (antibody, human IgG1, kappa, V domains shown)
VH: B1 VH
VL: B1 VL
modifications: conjugator-linker-payload on cysteine thiols after TCEP reduction (DAR8), maleimide hydrolysed; residues not numbered; structure given only as a drawing
B7H3 [5]
  EC50 (nM), ADC direct killing, Capan-1 (Low), 3D: 0.6 nM
  EC50 (nM), ADC direct killing, NCI-H1650 (High), 3D: 1.5 nM
  Emax (%), ADC direct killing, Capan-1 (Low), 3D: 62.2%
  Emax (%), ADC direct killing, NCI-H1650 (High), 3D: 76.4%

B6: ADC4-9 (antibody, human IgG1, kappa, V domains shown)
VH: B1 VH
VL: B1 VL
modifications: conjugator-linker-payload on cysteine thiols after TCEP reduction (DAR8), maleimide hydrolysed; residues not numbered; structure given only as a drawing
B7H3 [4]
  EC50 (nM), ADC direct killing, Capan-1 (Low), 3D: 0.8 nM
  EC50 (nM), ADC direct killing, NCI-H1650 (High), 3D: 2.8 nM
  Emax (%), ADC direct killing, Capan-1 (Low), 3D: 78.8%
  Emax (%), ADC direct killing, NCI-H1650 (High), 3D: 81.4%

B7: ADC4-12 (antibody, human IgG1, kappa, V domains shown)
VH: B1 VH
VL: B1 VL
modifications: conjugator-linker-payload on cysteine thiols after TCEP reduction (DAR8), maleimide hydrolysed; residues not numbered; structure given only as a drawing
B7H3 [5]
  EC50 (nM), ADC direct killing, NCI-H1650 (High), 3D: 2.3 nM
  Emax (%), ADC direct killing, Capan-1 (Low), 3D: 61.9%
  Emax (%), ADC direct killing, NCI-H1650 (High), 3D: 83.2%

B8: ADC4-14 (antibody, human IgG1, kappa, V domains shown)
VH: B1 VH
VL: B1 VL
modifications: conjugator-linker-payload on cysteine thiols after TCEP reduction (DAR8), maleimide hydrolysed; residues not numbered; structure given only as a drawing
B7H3 [5]
  EC50 (nM), ADC direct killing, Capan-1 (Low), 3D: 0.4 nM
  EC50 (nM), ADC direct killing, NCI-H1650 (High), 3D: 1.3 nM
  Emax (%), ADC direct killing, Capan-1 (Low), 3D: 61.3%
  Emax (%), ADC direct killing, NCI-H1650 (High), 3D: 81.6%

B9: ADC4-11 (antibody, human IgG1, kappa, V domains shown)
VH: B1 VH
VL: B1 VL
modifications: conjugator-linker-payload on cysteine thiols after TCEP reduction (DAR8), maleimide hydrolysed; residues not numbered; structure given only as a drawing
B7H3 [5]
  EC50 (nM), ADC direct killing, Capan-1 (Low), 3D: 1 nM
  EC50 (nM), ADC direct killing, NCI-H1650 (High), 3D: 2.1 nM
  Emax (%), ADC direct killing, Capan-1 (Low), 3D: 62.4%
  Emax (%), ADC direct killing, NCI-H1650 (High), 3D: 85.6%
